Data on one substance can be found in patent publication US20260242818A1.

This test has as its target barnase (Bacillus amyloliquefaciens) (UniProt P00648). As to the kind of experiment: cell-based or functional assay.
Sequence of UniProt P00648 (P00648 48-157 limits assumed): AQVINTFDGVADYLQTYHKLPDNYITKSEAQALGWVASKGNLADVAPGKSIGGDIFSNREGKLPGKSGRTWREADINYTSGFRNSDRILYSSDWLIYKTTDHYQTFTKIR

Take barstar (from UniProt P11540 2-90): the pollen formation in F1 anthers (PI staining, confocal microscopy); TA29b::barnase × TA29b::barstar, barstar under the same promoter as barnase (pollen grains) turned out to be 0 and the pollen viability (FDA/PI assay) in successful rescue F1 flowers, TA29b::barnase × TA29a::barstar came to 3.6%.
